One series has as its system arterial thrombus. Nature of the series: Biodistribution in rat model of carotid artery thrombosis. Format: in vivo. To be noted: 120 min post injection, ratio of %ID/g.
Assay in series [1]: as above
Format: in vivo. The settings on record: male, Wistar, in vivo, iv, total radioactivity, Biodistribution.

Bridge positions count the residues as written; N and C are the ends. Square brackets hold non-standard residues; d marks the D form. Peptide text beside a SMILES is read from it. * marks the point of attachment. DOTA(p-xylylenediamine) = O=C(O)CN1CCN(CC(=O)O)CCN(CC(=O)NCc2ccc(CN*)cc2)CCN(CC(=O)O)CC1; DOTA = O=C(O)CN1CCN(CC(=O)O)CCN(CC(=O)*)CCN(CC(=O)O)CC1; Tyr(3-Cl) = N[C@@H](Cc1ccc(O)c(Cl)c1)C(=O)O; Hyp = O=C(O)[C@@H]1C[C@@H](O)CN1

Take `CC[C@H](C)[C@H](NC(=O)[C@H](Cc1ccc(O)cc1)NC(=O)[C@@H]1CSSC[C@H](NC(=O)[C@@H](CCC(=O)O)NC(=O)[C@H](Cc2ccc(O)cc2)NC(=O)CN2CCN(CC(=O)O)CCN(CC(=O)O)CCN(CC(=O)O)CC2)C(=O)N2C[C@H](O)C[C@H]2C(=O)N[C@@H](Cc2ccc(O)c(Cl)c2)C(=O)NCC(=O)N[C@@H](CC(C)C)C(=O)N1)C(=O)N[C@@H](CCC(N)=O)C(=O)NCc1ccc(CNC(=O)CN2CCN(CC(=O)O)CCN(CC(=O)O)CCN(CC(=O)O)CC2)cc1` [FBP1] ({DOTA}-Y[dE]C[Hyp][Tyr(3-Cl)]GLCYIQ-{DOTA(p-xylylenediamine)}; disulfide 3-8): in the series on arterial thrombus, the “thrombus uptake relative to blood” value was above 2.5 fold.
`CC[C@H](C)[C@H](NC(=O)[C@H](Cc1c[nH]c2ccccc12)NC(=O)[C@@H]1CSSC[C@H](NC(=O)[C@H](CCC(=O)O)NC(=O)[C@H](Cc2c[nH]c3ccccc23)NC(=O)CN2CCN(CC(=O)O)CCN(CC(=O)O)CCN(CC(=O)O)CC2)C(=O)N2C[C@H](O)C[C@H]2C(=O)N[C@@H](Cc2ccc(O)c(Cl)c2)C(=O)NCC(=O)N[C@@H](CC(C)C)C(=O)N1)C(=O)N[C@@H](CCC(N)=O)C(=O)NCc1ccc(CNC(=O)CN2CCN(CC(=O)O)CCN(CC(=O)O)CCN(CC(=O)O)CC2)cc1` [FBP3] ({DOTA}-WEC[Hyp][Tyr(3-Cl)]GLCWIQ-{DOTA(p-xylylenediamine)}; disulfide 3-8): the “thrombus uptake relative to blood” value in the series on arterial thrombus is given as “no difference”. In addition, the tissue uptake (in general, the percentage of the injected dose found per gram of tissue) at 2 h in series [1] (blood) was determined as 0.184 ± 0.026 %ID/g; in series [1] (bone) it was 0.041 ± 0.011 %ID/g; in series [1] (brain), 0.011 ± 0.003 %ID/g; in series [1] (clot), 0.183 ± 0.088 %ID/g; in series [1] (heart), 0.082 ± 0.01 %ID/g; in series [1] (intestine) it was 0.184 ± 0.053 %ID/g. In addition, the tissue uptake at 2 h is 0.621 ± 0.186 %ID/g in series [1] (kidney); 1.46 ± 0.292 %ID/g in series [1] (liver); 0.066 ± 0.008 %ID/g in series [1] (lungs); 0.009 ± 0.001 %ID/g in series [1] (muscle); 0.04 ± 0.006 %ID/g in series [1] (spleen).
For `CC[C@H](C)[C@H](NC(=O)[C@H](Cc1c[nH]cn1)NC(=O)[C@@H]1CSSC[C@H](NC(=O)[C@H](Cc2c[nH]cn2)NC(=O)[C@H](Cc2ccccc2)NC(=O)CN2CCN(CC(=O)O)CCN(CC(=O)O)CCN(CC(=O)O)CC2)C(=O)N2C[C@H](O)C[C@H]2C(=O)N[C@@H](Cc2ccc(O)c(Cl)c2)C(=O)N[C@@H](CC(=O)O)C(=O)N[C@@H](CC(C)C)C(=O)N1)C(=O)N[C@@H](CC(C)C)C(=O)NCc1ccc(CNC(=O)CN2CCN(CC(=O)O)CCN(CC(=O)O)CCN(CC(=O)O)CC2)cc1` [FBP2] ({DOTA}-FHC[Hyp][Tyr(3-Cl)]DLCHIL-{DOTA(p-xylylenediamine)}; disulfide 3-8), in the series on arterial thrombus, the “thrombus uptake relative to blood” value is reported as above 2.5 fold. The tissue uptake at 2 h in series [1] (blood) turned out to be 0.164 ± 0.016 %ID/g; in series [1] (bone), 0.043 ± 0.015 %ID/g; in series [1] (brain) it was 0.017 ± 0.004 %ID/g; in series [1] (clot) it was 0.445 ± 0.102 %ID/g; in series [1] (heart) it was 0.074 ± 0.011 %ID/g; in series [1] (intestine), 0.278 ± 0.095 %ID/g. Besides, the tissue uptake at 2 h in series [1] (kidney) is 2.72 ± 0.848 %ID/g; in series [1] (liver), 0.617 ± 0.187 %ID/g; in series [1] (lungs) it was 0.048 ± 0.01 %ID/g; in series [1] (muscle), 0.012 ± 0.003 %ID/g; in series [1] (spleen) it was 0.071 ± 0.016 %ID/g.

For the origin of these results see PMC3593967 (Molecular pharmaceutics, 2013).
